In the DeepSol protein solubility set:

assay: soluble on expression in E. coli; label from the status in PepcDB or PDB records

Sequence | soluble on expression in E. coli
ANATKNTPSEDQQLANIIETHEAFYLKSSPFNQPEVIGNNAKLPDLSADFLLAQYQQGLAIYQQLIALDNEKLTQENQINFSVLTYSLKNQLDSYINKEHYMPLTAESGFHVWIANISKQVDFKTFTDYQDYLVRLSLLPAYFSQQTYWMKKGLKSGISQPKIVLKGFEQSIAAYIKEDVTESSYYQPFNKMSAFITTSQKKDLQQQAKQVLSTKVMPAYTAYYDFMVNVYQPNARDNIAAISLPNGKEYYQNRLVHYTTLPMTATEVHQQGVGEVKRIRVEMNAIIEQVNFDGSFSEFVEFLRTDPQFYASTPTELLKEASFIAKKMDAKLPRLFKTLPRTPYGVMAVPANIAPKYTTGRYAGSSRDDQPGNYWVNTYRLDRRPLYVLTALTLHEAVPGHHLQISLAKEMKDVAKFRNRSYISAFGEGWGLYSEYLGIEAGMYEDPYHNFGRLTYEMWRACRLVVDTGMHTQGWSREQAMDFLASNTALSLHNVKTEIDRYISWPGQALSYKIGELTIKRLRKEAEQTLGEDFDLREFHDQILKHGSMPLSMLDKIITQYINDKDNSVTK | not soluble
MAHHHHHHMNSTDTKQSAGYFKEKATIGLSSFSGDEIVKAILKTTSHLLKAPKEKYMQKLVAASYGQYGSGLREGLPINEFIVRELEKRSHTHNWIVVLKTMVSFHRLMCDASDSMVETICYYRHVFRASNIKNLADTADGAGQAYFIAQYMTYLEERCVMQSALGKGRRVEIREFEEYLETLNAKSLQPVFEILLRLFEAVPAVEYREAVVNNFCTLEAYQLLVRDGKQLFQHLAKRVIFILDGFEDFSLPEKRRWFDLYRRYASAFASVKQYFDSMLCSSRVFLEPVPKLKPLPESLLTRLEGDIRASETAKEGLCTLESLGICSREDSRVDSKEEKIRPPRAPEPAVVNQSEAVTALTPAAPTVSLDDLFVPSQEPTKPVQPASCPASWTPAPLAATSFQQGSEQFQWETGVPQNWGSGGHITLQAIATPPVPPPQHAFSGGAPPPAGEGALYPLVQSALKQPPPPVQFKKPADPLKDLYNSCHWQSN | not soluble
MGSDKIHHHHHHMSVVDFSKLYPDNRQEGETVLRQAQLVMLRMLKIIDYICRKHDISYWMCSGTLLGAVRHKGFIPWDDDLDICMIREDYERFVEIAVNEFPEDMMLQTRETDPHYHYLPLPCKVRDKKSFILSPGYEDEECEKGLFIDIFPMDRYHKQKLPFMFEKMVKVYNTFICKSLDAIYFKDESIDKKILAFFHPVFHKLVLQYMKFAKKLIDKNRGLGTDCRLGHGFDTLWKRYLRFDDIFPVVEIDFEDSKFFAPHRPDVYLTTLYGPNYMTPPPEKQRLAAQHAHEIKPII | not soluble
MARIKLIDETTDLSQVRRPIGWDLEVNGVPYDVYRIDGYNHTLGGKFSENCYWACPAGKKPTYKNLIEFNGDAPTWGIVFDRSNYTKTKWDETSVECNGICWITRNGKKFYSIPARYMDYGLAKAQYILVKLLEECPLWLSERNWKEKAIGRKIWYENQPAKIIRINEENELWIEPDGIPVFKAPAHWDHDDYSDYENGLRVDLLSPNIYWFRD | not soluble
MAHHHHHHMKRWDEKLTLALRRGSGSDDVTPNPVSEALRNLEETMESIKRRLSQLEKCVERQRVAINEVRTNTSPFDDLLTKTNGDIQSIQQQLEYVVISLERERGIVTDHTEQLRLFVRESTRRDGGRSGLSDSDPSFLFLLATWLYRPVVDFANGCYVLLSPLIGTLQSLSLFNPDVQVRQTESGVYLNNAQPSEDLLSRLQKGQLDPVLTSKT | not soluble
MIKDLVRPELQKLVPYVSHQVPYRIKLDANESPFELPESIRKKLADYFLKGPGLNIYPDNESVELRKTIAKYWNVDADEVIVGTGSNQLIQLIITVFVGKGEKVLYPWPTFSMYKINTLIAGGEPVAFPLDKEKDFVLDTDKFIEAVKTENAKVVFLCNPNNPTGGLVPLEHIEKIVKECKSSIIVVDEAYAEFCPQSVIPLVKKYENLVVLRTFSKAYLLAGARCGYSISGIEIANEINKVRPTYNVSSLTQLIAKMVFEEQEEMQKMIRYLIEQRGELEKSLKKIKDVCIYPSHANYILVKVPEAEMISKELQKRGILIRSFPNDPVLYDCIRITVGTKEQNDIFLEEFSDIINNF | not soluble
MGSDKIHHHHHHMNAPFVPSRVVARLADPGERPAVARFLDAHPDATVFHRAAWLDAVEQSTGHRTHVLVSGQDEAIRAVLPLHEVHSPLFGRALVSTGFGVGGGVVGKGDAALFAAAQELAVRLNCPTVELRGGPLPQGDGWHVKTDSHAGFVTPLAADDEAQLLAIPRKQRAEVRRGLGYGMEVRTGRSPEDRAMHHAVYAQSVRNLGTPVFPRRLFDAVLDGFGDDADILTVLHEGRPLASVLSLYHRGAVMPYWGGGTFEARAMRANDVMYYALMNHARARGCDRFDFGRSKVDSGAYHFKRNWGFAPQPLSYAHWTADGQAPRDVNPLSPRYRARIALWQKLPLAVANRLGPIIANGLA | not soluble
MLSTIRYYYEHSLIEEKTKHQELSWQTPISRSLVTHDPSTGGIQLSKKNAMLNDAVTTTTTVEVFRAPTNTDMISLTPASNGGPPLLVRTNGPQYEQWNDRRVQTMMVDDDRRDLAKGVQWKERLIEESDRRYRDNGSDFYDEITEPTQFIHHDYRPKPLGFQTITHPIIMTGSRDDLRSQPPQYPAPLSPLYIVPDRHRNIANSVSPGQYSRRSNGYEDRRKDTEELRDERKRENEQNQNRERYHHRRSKSSNRDDASVSHRSLRHRSMSPASRRSFGTSLGGSQEFVIPAHSPIGSTLMLASPDPNELPGRPASAKSQEIFALYQTRDAYNRIVDQL | not soluble
MGSDKIHHHHHHMSIPLAFIICTEPGRLESQSLMLASSIRKFCGNLKDTPIYSFHPRVGEPISHQTQEAFAALQVIHQQIPINQEFHEYYLANKPLVCAYAEQNIDAEILVFLDSDKCLFAEPTEFLLPENCNVRVRPEYGQGIGSTGSQDPQEWYWQRLYQVLGVKREIFVNTPIGNKRIRAYWNSGLVAVRRSAGIFTAWKENFTKVMHLDITPPQGIYFVEQSVLSVTLCALVDNIEHFSLNYSYPLPLHNRLSPELRLQDWDDITSIHYFNLFFYNDWNTQIKKLKKFNITSDKYKWLSQEVVRLNMSRTSVLHRYMLAIRRIEQKLQKFNIKINLSSLIEKTAKF | not soluble
MGSDKIHHHHHHMDTKQTFLEDLKSRDNIKLSLMVMKIIFRETDKLICILADRTGEIKASVPLKDGDIKQGMVIQINGSKNVNLEVKSYKIIRDYNISDYLPTVKRPIEDIMNEIELYTNKYVLSKEGRALNDYFFKDEEFLEKFKKGIGGVSMHHNYIGGLAEHTLNVMKITAKLSEKYKCRRMEVAVLAAKLHDIGKVYEYDCNGPFKYTMRGQMEGHIVIGVELVDRAVRENLNLYPEDFVNRIKGCIVQHHGKLEFGSPREMNMEESFIINYADSIDATMNKISQLKEKTEPDTWSEFDRRIERKLYL | not soluble
MKLKQLEGLLGDLEQFSNPKNRSVIGFDIDPESLETATLNAEELEVEIDFVQCDITKLELKGLIVDTVVMNPPFGTRKKGADMEFLSAAMKVASKAVYSLHKTSTRELRYDLPKLYKFHKRKEVDIAVDLWRFEPRQN | soluble
MGSDKIHHHHHHMSSNTFTLGTKSVNRLGYGAMQLAGPGVFGPPRDRHVAITVLREALALGVNHIDTSDFYGPHVTNQIIREALYPYSDDLTIVTKIGARRGEDASWLPAFSPAELQKAVHDNLRNLGLDVLDVVNLRVMMGDGHGPAEGSIEASLTVLAEMQQQGLVKHIGLSNVTPTQVAEARKIAEIVCVQNEYNIAHRADDAMIDALAHDGIAYVPFFPLGGFTPLQSSTLSDVAASLGATPMQVALAWLLQRSPNILLIPGTSSVAHLRENMAAEKLHLSEEVLSTLDGISRE | not soluble
MFWRSIPSLQTLLAAGMGLLMLEIVMAHQPAQAESCTVDPFGSEVCLPDSTPEEPDKPKRSNQSKKSNKPDKSKRMVIVPSCFGPCTQFPPAPPYRQFQEVMEEAALKATPDATPEPRPAEPLRPLWFKSDQLDDVEAETYLERTLDRNDMAQLNAVGIEADTDADGMVITVDGLSYGEVLEPHGLLFTNEVNEPGLNAWVRGFGGGSSNGAAGDRYANFSNGGSQIGFDIPINDETRIGLFGTYAVMNGTDGARGSWDSDGWGGGAYAEYWTSDFYLRGMVSAGGYDGEHRRKIDGETAKGDRSGNSWTGVLNIGAPLQSGDWIIEPQAQLSYTNTSLDKFSEHGANRRDRLRFHEMEVDQLGSELSVKFAIPIRDGERSLLLPSLRVGWAADWGMSGDHQKVSYLESGKSQRWDVNGNDDHAALVELGLDYTTFNFQDTSMGVYARGGGLLWAGNRGTSWQVQGGLNFKF | not soluble
MEDTAEENNESIDDQPSTSTATDPNQTRETEKEKGDDEMFRLLQATDEILENKAKSMNLSSLNVRSILHHLIKYPSTIDVLLGIRENDDLPSVRNMRSRKKPDDSGASSTVNTPKKFGALRIEDRGPKSFLDLEYEEDDEYDDDYIEENDTSTRNKLNAGSEEDEENDDEEEIEDEGEDEDDEEQDELEEDGEHEITGSEACTSGQNDTMHALLFDETSEDVQNEEDYVLNMTLNDTRAESVAPIPTLDNVDDDGFYRDFVTGINRTEKDNDNLEVLDTEDDPDDEDYNVCADDGLNVEDWDETRQDKTTQIPRHELKALMIDTLLAEKEIPLNAFPEEAINGEEHRKSQKVKDAEVYERINTSISSSSESCSLLKDSLATFRPQELQQLNMQLEQHVQLLTQLVVTCHHDVNLSHVRNSSQLMMNELDDIRQQKIYPTVFDVRNLDAAIESCHDINAFDAVDESFLKYAENTEGYGGIALRPEAAVVLSRSNAIRYPALLPSRQPFFIETPIPFLSEEDLMLAVALLQFAHLPRRGEKEMIDRYTAIQQHCLPARSSYKIRTHLKSMRRSDKNPIHQIMQAAEKGVCKLVLPLKSWQESDTPICQWPPASQPGWYRRFQETFNVTEERKILRKHVSTMVLTPVKNKDRQDQEASEATFESGEEGEDDEFVNMGTAPDGRKIIMGREHIEDLVHQLIKQNEISPSKRRKNPTPMKLSTMIQLEEAEKRIADSQKNSCGGQTISALSNVSGDSNVDNNGTHEKELMPSTSSIDSLESINNQETSKFPRPLPMSDQPTLNTSCHITTTTCSVSYEDVDVGTLKKSYVEITASKYETNSNSCFSYPIPPTPGRRSPDDFDDYFMDLESNSLMWPQTPYAVTDENPQTPRGFSASESSEPIDFSSLGKATSLDTEEIVFQSTSCQRPMGYCSDFGEFSNSSSLPEEIPVPSHQRTPQESAIEDDSSMPGLDMVPLYEEDVEECIIEDIEEEEAPIKQGLVNSRPPLRFKKEVKAGITNLAPSRKRTRIEREAMGSVGLDDEQLHDKQKENIMRKVIEDVNQRLFMHTDTYQRFKEAITDENLTDFEKVTRTIIILANHPELLNLVLLNAPPEAVISDLQCDHNYQSYKVAIEMIMDIERYITAAKLKEPSLKGLFRYIQSFLEDKPNMTDEQATKRFYELFGQDRPLWKKLESRFWCLPYKARPRLENYEYIDLTGLETMSKREKRDWNSIPPRFETVDDIDQVMGSVYRASKNEPPSNLVVKCGEFCIRNDDETYTQLEITERLWTRKDDISLLTSYNEALKTIPNFTVSQMPSLISDLSFGEKSIIARLQYLLTELKSLD | soluble
MSLKIIILGAGQVGGTLAENLAGENNDITIVDTDSDRLRELQDKFDLRVVNGHGAHPKVLREAGAQDADMLVAVTNSDETNMVACQVAYSLFNTPNKVARIRSPAYLVERDRLFLPESVPVDHLIAPEQLVTDYVRRLIEYPGALQVVDFAGGKVGLVAVKAYYGGPLVGNALSTLRDHMPNIETRVAAIFRQGRSIRPQGTTIIEADDEVFFVAAAGHIRAVMSELQRLESPYRRIMIVGGGNIGAGLARQLEKRYSVKLIERNQKRAEQLSEVLENTIVFCGDAADQELLAEEHIDQIDVFIAVTNEDEANIMSALLAKKMGAKKTMVLIQRSAYVDLVQGGSIDIAISPQQATISALLTHVRRADIANVYSLRRGAAEAIEAIAHGDENTSKVVGKTVGELKLPPGTTIGAIVRGDEVLIAHDRTQIQQDDHVVMFLVDKKYIPEVERLFQPSPFFLEGHHHHHH | soluble
